Assay results from US20250296992A1 (Genmab, published 2025).

Tests used:
[1] = target: T1, human SLITRK1 (human, UniProt Q96PX8 18-622, limits assumed); experiment: BLI, antigen on anti-his tips
T1 construct: The method text describes only the SLITRK6 ECD-his construct; also called Hu SLITRK1
T1 sequence (looked up): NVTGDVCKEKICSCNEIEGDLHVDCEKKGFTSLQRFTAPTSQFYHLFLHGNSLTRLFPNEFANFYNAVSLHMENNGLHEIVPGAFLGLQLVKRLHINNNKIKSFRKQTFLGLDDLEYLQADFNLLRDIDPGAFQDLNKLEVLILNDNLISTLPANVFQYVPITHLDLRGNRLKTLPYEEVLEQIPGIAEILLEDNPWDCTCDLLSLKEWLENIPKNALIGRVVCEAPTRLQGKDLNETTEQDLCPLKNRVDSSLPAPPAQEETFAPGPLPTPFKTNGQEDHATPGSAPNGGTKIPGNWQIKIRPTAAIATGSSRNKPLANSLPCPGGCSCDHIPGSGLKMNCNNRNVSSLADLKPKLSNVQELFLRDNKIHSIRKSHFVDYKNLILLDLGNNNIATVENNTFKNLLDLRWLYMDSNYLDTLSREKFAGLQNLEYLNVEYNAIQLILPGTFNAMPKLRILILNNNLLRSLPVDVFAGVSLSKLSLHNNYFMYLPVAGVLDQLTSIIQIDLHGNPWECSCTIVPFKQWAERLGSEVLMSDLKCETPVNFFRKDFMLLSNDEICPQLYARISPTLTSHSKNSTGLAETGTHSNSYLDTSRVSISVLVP
Experimental: (§1) Binding kinetic of antibody-antigen was characterized by the bio-layer interferometry (BLI). 100 nM of SLITRK6′ extracellular domain linked to his tag was immobilized on anti-his biosensor tips (Fortebio). The sensors were rinsed with the buffer (50 mM Tris-AcOH, pH 6 or 7.5, 0.05% v/v surfactant P20) for 10 min to remove the unbound molecules, then dipped in the antibody solutions at different concentrations for 180 seconds and interspersed by a rinsing step in the buffer solution for 300 seconds. Binding affinity was calculated using ForteBio Data Acquisition 6.3 software (ForteBio) and was derived by fitting the kinetic data to a 1:1 Langmuir binding model utilizing global fitting algorithms. The dissociation or association equilibrium constant KD was calculated from the binding rate constants as KD=koff/kₒₙ (where koff and kₒₙ represent the dissociation kinetic constant and the association kinetic constant, respectively).

[2] = target: T2, human SLITRK4 (human, UniProt Q8IW52 19-618, limits assumed); experiment: BLI, antigen on anti-his tips
T2 construct: The method text describes only the SLITRK6 ECD-his construct; also called Hu SLITRK4
T2 sequence (looked up): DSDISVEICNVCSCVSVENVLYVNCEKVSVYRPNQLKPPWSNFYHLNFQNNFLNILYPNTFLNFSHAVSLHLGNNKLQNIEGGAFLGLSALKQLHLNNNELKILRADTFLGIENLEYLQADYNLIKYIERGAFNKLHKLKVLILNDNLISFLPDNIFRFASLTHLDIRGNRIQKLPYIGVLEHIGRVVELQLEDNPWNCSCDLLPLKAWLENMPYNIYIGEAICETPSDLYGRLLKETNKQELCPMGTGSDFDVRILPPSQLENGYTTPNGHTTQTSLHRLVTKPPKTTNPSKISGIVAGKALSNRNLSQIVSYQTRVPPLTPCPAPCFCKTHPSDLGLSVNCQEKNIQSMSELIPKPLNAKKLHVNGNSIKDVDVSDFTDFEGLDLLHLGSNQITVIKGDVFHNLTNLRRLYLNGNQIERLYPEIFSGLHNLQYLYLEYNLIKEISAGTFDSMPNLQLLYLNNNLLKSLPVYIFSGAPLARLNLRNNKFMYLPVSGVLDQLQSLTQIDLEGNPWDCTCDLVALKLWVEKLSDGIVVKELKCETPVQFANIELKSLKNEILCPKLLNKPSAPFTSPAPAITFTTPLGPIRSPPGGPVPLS
Experimental: as §1

[3] = target: T3, rat SLITRK6 (rat, UniProt D3ZP44 27-607); experiment: BLI, antigen on anti-his tips
T3 construct: extracellular domain; not shown: his tag

[4] = target: T4, human SLITRK6 on cells (human, UniProt Q9H5Y7 27-841); experiment: flow cytometry on RT4 cells, PE-conjugated anti-human Fc
T4 construct: whole, on cells
Experimental: (§2) Specifically, cells were incubated with 50 μL of mAbs or ADCs in series dilutions in PBS containing 1% BSA at 4° C. for 30 min. The cells were washed twice with PBS containing 1% BSA, stained with PE-conjugated anti human Fc in PBS containing 1% BSA and then incubated at 4° C. for 20 min. After that the cells were washed twice with PBS and analyzed by a flow cytometer.

[5] = target: T4, human SLITRK6 on cells; experiment: as above; remark: listed apart in the source
Experimental: (§3) The binding activity of mAbs and ADCs was evaluated by flow cytometer (Beckman, Cytoflex). Specifically, cells were incubated with 50 μL of mAbs or ADCs in series dilutions in PBS containing 1% BSA at 4° C. for 30 min. The cells were washed twice with PBS containing 1% BSA, stained with PE-conjugated anti human Fc in PBS containing 1% BSA and then incubated at 4° C. for 20 min. After that the cells were washed twice with PBS and analyzed by a flow cytometer.

[6] = target: T4, human SLITRK6 on cells; experiment: flow cytometry on SW780 cells, PE-conjugated anti-human Fc
Experimental: as §2

[7] = target: T4, human SLITRK6 on cells; experiment: as above; remark: listed apart in the source
Experimental: as §3

[8] = target: T4, human SLITRK6 on cells; experiment: flow cytometry on CHP-212 cells, PE-conjugated anti-human Fc
Experimental: as §2

[9] = target: T4, human SLITRK6 on cells; experiment: flow cytometry on KYSE-30 cells, PE-conjugated anti-human Fc
Experimental: as §2

[10] = target: T4, human SLITRK6 on cells; experiment: flow cytometry on RT112/84 cells, PE-conjugated anti-human Fc
Experimental: as §2

[11] = target: T4, human SLITRK6 on cells; experiment: flow cytometry on KYSE-410 cells, PE-conjugated anti-human Fc
Experimental: as §2

[12] = target: T5, mouse SLITRK6 (mouse, UniProt Q8C110 23-609); experiment: BLI; antigen-his on anti-his tips, antibody or ADC as analyte; 1:1 fit
T5 construct: extracellular domain; also called Mu SLITRK6; not shown: his tag
T5 sequence (Q8C110 23-609): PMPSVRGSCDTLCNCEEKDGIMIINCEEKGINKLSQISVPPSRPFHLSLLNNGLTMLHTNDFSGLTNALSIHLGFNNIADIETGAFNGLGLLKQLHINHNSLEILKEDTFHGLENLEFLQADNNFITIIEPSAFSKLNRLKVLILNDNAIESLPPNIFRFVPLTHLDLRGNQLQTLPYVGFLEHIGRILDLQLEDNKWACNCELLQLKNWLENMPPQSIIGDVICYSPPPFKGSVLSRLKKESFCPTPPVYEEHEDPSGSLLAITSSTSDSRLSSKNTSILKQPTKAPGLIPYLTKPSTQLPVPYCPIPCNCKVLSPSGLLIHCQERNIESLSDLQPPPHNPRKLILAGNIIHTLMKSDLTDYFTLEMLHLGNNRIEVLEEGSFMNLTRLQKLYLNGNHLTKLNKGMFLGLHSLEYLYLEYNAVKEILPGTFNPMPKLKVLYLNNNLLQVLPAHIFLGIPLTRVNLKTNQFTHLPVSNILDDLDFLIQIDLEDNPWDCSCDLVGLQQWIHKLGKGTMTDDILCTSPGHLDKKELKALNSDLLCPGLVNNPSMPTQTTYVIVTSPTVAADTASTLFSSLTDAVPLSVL

[13] = target: T6, human SLITRK6 extracellular domain linked to his tag (human, UniProt Q9H5Y7 27-608); experiment: as above
T6 construct: extracellular domain; also called huSLITRK6; Hu SLITRK6; not shown: his tag

[14] = target: T7, cynomolgus monkey SLITRK6 extracellular domain linked to his tag (cynomolgus monkey, UniProt G7PVK4 27-608); experiment: as above
T7 construct: extracellular domain; also called cynoSLITRK6; Cyno SLITRK6; not shown: his tag

[15] = target: T4, human SLITRK6 on cells; experiment: flow cytometry on 293F-huSLITRK6 cells, PE-conjugated anti-human Fc
Experimental: as §2

B1: hu1H2-03 with a LALA mutation (hu1H2-03-LALA) (antibody, V domains shown)
VH: EVQLVESGGGLVQPGGSLRLSCAASGFTFSDYGLHWVRQAPGKGLEWVSYISSGSSTVYFADTLKGRFTISRDNAKNSLYLQMNSLRAEDTAVYYCTRGTWYFDVWGRGTLVTVSS
VL: DIQMTQSPSSLSASVGDRVTITCRTSENIHSYLAWYQQKPGKSPQLLVYNAKTLADGVPSRFSGSGSGTDYTLTISSLQPEDFGTFYCQHFWTTSRTFGGGTKVEIK
binding result [1]: no binding | binding result [2]: no binding | binding result [3]: no binding | EC50 (read off the curve) [4]: ~200 pM | EC50 (read off the curve) [5]: ~300 pM | EC50 (read off the curve) [6]: ~300 pM | EC50 (read off the curve) [7]: ~300 pM | EC50 (read off the curve) [8]: ~200 pM | EC50 (read off the curve) [9]: ~200 pM | EC50 (read off the curve) [10]: ~200 pM | EC50 (read off the curve) [11]: ~200 pM | Kd [12]: 590 pM | Kd [13]: 140 pM | Kd [14]: 250 pM | EC50 (read off the curve) [15]: ~900 pM

B2: hu1H2-03-LD038 (antibody, V domains shown)
VH: EVQLVESGGGLVQPGGSLRLSCAASGFTFSDYGLHWVRQAPGKGLEWVSYISSGSSTVYFADTLKGRFTISRDNAKNSLYLQMNSLRAEDTAVYYCTRGTWYFDVWGRGTLVTVSS
VL: DIQMTQSPSSLSASVGDRVTITCRTSENIHSYLAWYQQKPGKSPQLLVYNAKTLADGVPSRFSGSGSGTDYTLTISSLQPEDFGTFYCQHFWTTSRTFGGGTKVEIK
modifications: drug-linker LD038 conjugated to the antibody; positions not given
notes: also called hu1H2-03-LALA-LD038; hu1H2-03-LD038 (8)
binding result [1]: no binding | binding result [2]: no binding | binding result [3]: no binding | EC50 (read off the curve) [4]: ~300 pM | EC50 (read off the curve) [6]: ~400 pM | EC50 (read off the curve) [8]: ~200 pM | EC50 (read off the curve) [9]: ~300 pM | EC50 (read off the curve) [10]: ~200 pM | EC50 (read off the curve) [11]: ~200 pM | Kd [12]: 610 pM | Kd [13]: 80 pM | Kd [14]: 210 pM | EC50 (read off the curve) [15]: ~1000 pM
